Measured values taken from patent US20030144176.
Residue numbers refer to the chain shown, from its start.

B1: endogenous ERK5 immunoprecipitated from neonatal rat cardiomyocytes (protein)
chain: AEPLKEEDGEDGSGEPPGRVKAEPVHTAASVVAKNLALLKARSFDVTFDVGDEYEIIETIGNGAYGVVSSARRRLTGQQVAIKKIPNAFDVVTNAKRTLRELKILKHFKHDNIIAIKDILRPTVPYGEFRSVYVVLDLMESDLHQIIHSSQPLTLEHVRYFLYQLLRGLKYMHSAQVIHRDLKPSNLLVNENCELKIGDFGMARGLCTSPAEHQYFMTEYVATRWYRAPELMLSLHEYTQAIDLWSVGCIFGEMLARRQLFPGKNYVHQLQLIMMVLGTPSPAVIQAVGAERVRAYIQSLPPRQPVPWETVYPGADRQALSLLGRMLRFEPSARISAAAALRHPFLAKYHDPDDEPDCAPPFDFAFDREALTRERIKEAIVAEIEDFHARREGIRQQIRFQPSLQPVASEPVCPDVEMPSPWAPSGDCAMESPPPALPPCSGPAPDTVDLTLQPAPPASELAPPKREGAISDNTKAALKAALLKSLRSRLRDGPSAPLEAPEPRKPVTAQERQREREEKRRRRQERAKEREKRRQERERKERGAGTLGGPSTDPLAGLVLSDNDRSLLERWTRMARPPVPAPAPAPAPTPKPSSAQPTSPPNGPVSQSTAPLQPAGSIPGPASQPVCPPPGPVPQPAGPVPAPLQTAPSTSLLASQSLVPPSGLPGSGAPEVLPYFPSGPPPPDPGLTPQPSTSESPDVNLVTQQLSKSQVEDPLPPVFSGTPKGSGAGYGVGFDLEEFLNQSFDMGVADGPQDGQADSASLSASLLADWLEGHGMNPADIESLQREIQMDSPMLLSDLPDLQEP
B2: HA-tagged activated MEK5 (MEK5DD), MEK5β splice isoform with aspartate substitutions of serine-222 and threonine-226 (protein)
chain: MEQQVNGQLIEPLQIFPRACKPPGERNIHGLKVNTRAGPSQHTSPVVSDSLPSNSLKKSSAELRKILANGQMNEQDIRYRDTLGHGNGGTVYKAYHVPSGKILAVKVILLDITLELQKQIMSELEILYKCDSSYIIGFYGAFFVENRISICTEFMDGGSLDVYRKIPEHVLGRIAVAVVKGLTYLWSLKILHRDVKPSNMLVNTSGQVKLCDFGVSTQLVNDIAKDYVGTNAYMAPERISGEQYGIHSDVWSLGISFMELALGRFPYPQIQKNQGSLMPLQLLQCIVDEDSPVLPLGEFSEPFVHFITQCMRKQPKERPAPEELMGHPFIVQFNDGNATVVSMWVCRALEERRSQQGPP
B3: HA-tagged wild-type MEK5 (MEK5WT), MEK5β splice isoform (protein)
chain: B2 chain with D222S, D226T

Key:
[1] = target: glutathione-S-transferase (GST) fused to MEF2C amino acids 204-321
[2] = target: GST-ERK5KMΔ, a truncated, catalytically inactive form of ERK5 with lysine-83 mutated to methionine, fused to glutathione-S-transferase

Protein	ERK5 immunoprecipitation (IP) kinase assay: 32P phosphorylation of GST-MEF2C [1]	IP kinase assay: 32P phosphorylation of GST-ERK5KM substrate by immunoprecipitated HA-MEK5 [2]
B1	Phosphorylation of GST-MEF2C indicated that ERK5 was activated 2-4 fold by hypertrophic agents	
B2		AdMEK5DD produced a constitutively active kinase
B3		Some kinase activity was also observed with the AdMEK5WT virus
